Measurements reported in US20120039906A1.
pKd: −log10 of the molar value.

Biological target: PD-1 Ig fusion protein (extracellular region of human PD-1, aa 1 to 152, fused to the Fc fragment of human IgG1) (human) (UniProt Q15116)
Test: SPR (Biacore), 1:1 Langmuir model, PD-L2 Ig over immobilised PD-1 Ig; bivalent analyte, filing calls it most likely an avidity value

Chain of PD-1 Ig fusion protein (extracellular region of human PD-1, aa 1 to 152, fused to the Fc fragment of human IgG1) (human) (Q15116 other isoform, or with tags, fused parts or gaps limits assumed, form in doubt): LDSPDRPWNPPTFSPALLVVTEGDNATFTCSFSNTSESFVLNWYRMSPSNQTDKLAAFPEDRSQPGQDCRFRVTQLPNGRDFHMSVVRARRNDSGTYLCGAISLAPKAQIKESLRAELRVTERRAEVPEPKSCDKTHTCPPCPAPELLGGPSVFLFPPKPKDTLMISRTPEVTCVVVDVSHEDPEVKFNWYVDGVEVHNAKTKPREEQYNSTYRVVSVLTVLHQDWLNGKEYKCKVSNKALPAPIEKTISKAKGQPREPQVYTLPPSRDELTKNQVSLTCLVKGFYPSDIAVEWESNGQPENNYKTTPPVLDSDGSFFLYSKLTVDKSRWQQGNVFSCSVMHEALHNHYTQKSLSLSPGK

pKd: 8.00
Substance: PD-L2 Ig fusion protein (extracellular portion of human PD-L2 fused to the Fc fragment of human IgG1) (from UniProt Q9BQ51 20-220) (Fc fusion)
